Reference: patent publication US20130260436A1, “Methods of Identifying and Characterizing Natural Product Gene Clusters” (Victoria LInk Limited, priority 2010, published 2013)

Experiments:
Sfp = Sfp (Bacillus spizizenii, UniProt G4NQW2); experiment: Carrier protein (CoA) competition assay with Sfp; type: biochemical, B. subtilis subsp. spizizenii ATCC6633; conditions: competition with BpsA for limited CoA (250 nM), read-out: IC50 for carrier protein mediated inhibition of BpsA activation
Excerpt: (§1) Another aspect of the invention described is a CoA competition assay for PPTase characterization. Assays of this type consist of two phases. In the first phase is the competition phase in which apo-BpsA and a purified carrier protein (CP) to be characterized compete for a limited pool of CoA which is attached to either the CP to be characterized or apo-BpsA by a PPTase. During this first phase, only the substrates necessary for phosphopantetheinylation are present. Following the competition phase, the production phase is initiated. In the production phase, the substrates required for pigment synthesis by holo-BpsA (L-gln and ATP) are added to reaction vessels and the velocity (A590/s) of the resulting reaction measured. […]
(§2) One limitation of the approach outlined above for determination of PPTase kinetic parameters is that it only provides information about a PPTase of interest with a single carrier protein substrate (that of BpsA). […] Four carrier proteins were employed in assessed using this assay, these were: The peptide carrier protein of BpsA (bPCP), the peptide carrier protein of the first module of the Pseudomonas aeruginosa NRPS PvdD (pPCP), the peptide carrier protein of the Microcysitis aeruginosa NRPS/PKS MycG (mPCP) and the aryl carrier protein from Nostoc punctiforme protein HetM (npArCP). […]

PP1183 = PP1183 (Pseudomonas putida, UniProt Q88NM4); experiment: Carrier protein (CoA) competition assay with PP1183; type: biochemical, P. putida KT2440; conditions: competition with BpsA for limited CoA (250 nM), read-out: IC50 for carrier protein mediated inhibition of BpsA activation
Excerpt: as §1, §2

[1] = target: Sfp, phosphopantetheinyl transferase of Bacillus subtilis subsp. spizizenii ATCC6633 (Bacillus subtilis subsp. spizizenii ATCC6633); experiment: cell-based or functional assay
[2] = target: PP1183, putative phosphopantetheinyl transferase of Pseudomonas putida KT2440 (Pseudomonas putida KT2440); experiment: cell-based or functional assay
[3] = target: PcpS, phosphopantetheinyl transferase of Pseudomonas aeruginosa PAO1 (Pseudomonas aeruginosa PAO1); experiment: cell-based or functional assay
PcpS = PcpS (Pseudomonas aeruginosa, UniProt Q9I4H2); experiment: Carrier protein (CoA) competition assay with PcpS; type: biochemical, P. aeruginosa PAO1; conditions: competition with BpsA for limited CoA (250 nM), read-out: IC50 for carrier protein mediated inhibition of BpsA activation
Excerpt: as §1, §2

PcpS, sequence (Q9I4H2 entry or part of it): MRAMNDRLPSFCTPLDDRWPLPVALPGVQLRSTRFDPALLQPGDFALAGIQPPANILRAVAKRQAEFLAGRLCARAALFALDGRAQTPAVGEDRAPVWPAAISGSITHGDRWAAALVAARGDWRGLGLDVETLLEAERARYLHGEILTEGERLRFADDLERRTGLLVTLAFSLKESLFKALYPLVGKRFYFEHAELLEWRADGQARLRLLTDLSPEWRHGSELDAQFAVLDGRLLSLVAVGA
Sfp, sequence (G4NQW2 entry or part of it): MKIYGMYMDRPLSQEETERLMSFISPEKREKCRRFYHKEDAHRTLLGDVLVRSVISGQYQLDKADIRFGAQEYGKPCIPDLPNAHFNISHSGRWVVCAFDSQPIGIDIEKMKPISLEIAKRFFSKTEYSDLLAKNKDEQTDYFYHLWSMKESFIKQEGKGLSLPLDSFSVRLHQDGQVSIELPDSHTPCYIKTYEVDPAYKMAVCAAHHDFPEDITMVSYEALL
PP1183, sequence (Q88NM4 entry or part of it): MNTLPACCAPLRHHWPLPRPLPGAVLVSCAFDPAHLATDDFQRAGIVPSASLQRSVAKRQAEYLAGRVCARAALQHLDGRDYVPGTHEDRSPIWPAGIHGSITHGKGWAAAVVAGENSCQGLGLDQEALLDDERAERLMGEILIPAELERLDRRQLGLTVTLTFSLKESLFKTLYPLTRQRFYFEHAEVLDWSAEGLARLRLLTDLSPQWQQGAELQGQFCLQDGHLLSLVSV

B1: The peptide carrier protein of BpsA (bPCP), purified recombinant His6 tagged (protein)
chain: FVAPRTETEKEIAAVWEKALRRENASVQDDFFESGGNSLIAVGLVRELNARLGVSLPLQSVLESPTIEKLARRLE
IC50 (Sfp): 720 nM | IC50 (PP1183): 300 nM | IC50 (carrier protein competition with BpsA for limiting CoA) [1]: 720 nM | kcat/Km (estimate derived from IC50) (Min^-1 · µM^-1) [1]: 0.69 | IC50 (carrier protein competition with BpsA for limiting CoA) [2]: 300 nM | kcat/Km (estimate derived from IC50) (Min^-1 · µM^-1) [2]: 3.88 | IC50 (carrier protein competition with BpsA for limiting CoA) [3]: 710 nM | kcat/Km (estimate derived from IC50) (Min^-1 · µM^-1) [3]: 7.77 | IC50 (PcpS): 710 nM
